Literature values, collected in US20200069786A1, “COMPOSITION AND PROCESS FOR PREPARING VACCINE” (TREOS BIO ZRT., priority 2018, published 2020).
Where two headings read alike, the source gives them in different places.

B1: SSX-4 (protein, UniProt O60224 1-188, looked up)
Protein SSX4: MNGDDAFARRPRDDAQISEKLRKAFDDIAKYFSKKEWEKMKSSEKIVYVYMKLNYEVMTKLGFKVTLPPFMRSKRAADFHGNDFGNDRNHRNQVERPQMTFGSLQRIFPKIMPKKPAEEENGLKEVPEASGPQNDGKQLCPPGNPSTLEKINKTSGPKRGKHAWTHRLRERKQLVVYEEISDPEEDDE
B2: MAGE-C2 (protein, UniProt Q9UBF1 1-373, looked up)
Melanoma-associated antigen C2: MPPVPGVPFRNVDNDSPTSVELEDWVDAQHPTDEEEEEASSASSTLYLVFSPSSFSTSSSLILGGPEEEEVPSGVIPNLTESIPSSPPQGPPQGPSQSPLSSCCSSFSWSSFSEESSSQKGEDTGTCQGLPDSESSFTYTLDEKVAELVEFLLLKYEAEEPVTEAEMLMIVIKYKDYFPVILKRAREFMELLFGLALIEVGPDHFCVFANTVGLTDEGSDDEGMPENSLLIIILSVIFIKGNCASEEVIWEVLNAVGVYAGREHFVYGEPRELLTKVWVQGHYLEYREVPHSSPPYYEFLWGPRAHSESIKKKVLEFLAKLNNTVPSSFPSWYKDALKDVEERVQATIDTADDATVMASESLSVMSSNVSFSE
B3: SSX-2 (protein, UniProt Q16385 1-188, looked up)
Protein SSX2: MNGDDAFARRPTVGAQIPEKIQKAFDDIAKYFSKEEWEKMKASEKIFYVYMKRKYEAMTKLGFKATLPPFMCNKRAEDFQGNDLDNDPNRGNQVERPQMTFGRLQGISPKIMPKKPAEEGNDSEEVPEASGPQNDGKELCPPGKPTTSEKIHERSGPKRGEHAWTHRLRERKQLVIYEEISDPEEDDE
B4: TAF7L (protein, UniProt Q5H9L4 1-462, looked up)
Transcription initiation …: MECPEGQLPISSENDSTPTVSTSEVTSQQEPQILVDRGSETTYESSADIAGDEGTQIPADEDTQTDADSSAQAAAQAPENFQEGKDMSESQDEVPDEVENQFILRLPLEHACTVRNLARSQSVKMKDKLKIDLLPDGRHAVVEVEDVPLAAKLVDLPCVIESLRTLDKKTFYKTADISQMLVCTADGDIHLSPEEPAASTDPNIVRKKERGREEKCVWKHGITPPLKNVRKKRFRKTQKKVPDVKEMEKSSFTEYIESPDVENEVKRLLRSDAEAVSTRWEVIAEDGTKEIESQGSIPGFLISSGMSSHKQGHTSSEYDMLREMFSDSRSNNDDDEDEDDEDEDEDEDEDEDEDKEEEEEDCSEEYLERQLQAEFIESGQYRANEGTSSIVMEIQKQIEKKEKKLHKIQNKAQRQKDLIMKVENLTLKNHFQSVLEQLELQEKQKNEKLISLQEQLQRFLKK
B5: TDRD1 (protein, UniProt Q9BXT4 1-1180, looked up)
Tudor domain-containing …: MSVKSPFNVMSRNNLEAPPCKMTEPFNFEKNENKLPPHESLRSPGTLPNHPNFRLKSSENGNKKNNFLLCEQTKQYLASQEDNSVSSNPNGINGEVVGSKGDRKKLPAGNSVSPPSAESNSPPKEVNIKPGNNVRPAKSKKLNKLVENSLSISNPGLFTSLGPPLRSTTCHRCGLFGSLRCSQCKQTYYCSTACQRRDWSAHSIVCRPVQPNFHKLENKSSIETKDVEVNNKSDCPLGVTKEIAIWAERIMFSDLRSLQLKKTMEIKGTVTEFKHPGDFYVQLYSSEVLEYMNQLSASLKETYANVHEKDYIPVKGEVCIAKYTVDQTWNRAIIQNVDVQQKKAHVLYIDYGNEEIIPLNRIYHLNRNIDLFPPCAIKCFVANVIPAEGNWSSDCIKATKPLLMEQYCSIKIVDILEEEVVTFAVEVELPNSGKLLDHVLIEMGYGLKPSGQDSKKENADQSDPEDVGKMTTENNIVVDKSDLIPKVLTLNVGDEFCGVVAHIQTPEDFFCQQLQSGRKLAELQASLSKYCDQLPPRSDFYPAIGDICCAQFSEDDQWYRASVLAYASEESVLVGYVDYGNFEILSLMRLCPIIPKLLELPMQAIKCVLAGVKPSLGIWTPEAICLMKKLVQNKIITVKVVDKLENSSLVELIDKSETPHVSVSKVLLDAGFAVGEQSMVTDKPSDVKETSVPLGVEGKVNPLEWTWVELGVDQTVDVVVCVIYSPGEFYCHVLKEDALKKLNDLNKSLAEHCQQKLPNGFKAEIGQPCCAFFAGDGSWYRALVKEILPNGHVKVHFVDYGNIEEVTADELRMISSTFLNLPFQGIRCQLADIQSRNKHWSEEAITRFQMCVAGIKLQARVVEVTENGIGVELTDLSTCYPRIISDVLIDEHLVLKSASPHKDLPNDRLVNKHELQVHVQGLQATSSAEQWKTIELPVDKTIQANVLEIISPNLFYALPKGMPENQEKLCMLTAELLEYCNAPKSRPPYRPRIGDACCAKYTSDDFWYRAVVLGTSDTDVEVLYADYGNIETLPLCRVQPITSSHLALPFQIIRCSLEGLMELNGSSSQLIIMLLKNFMLNQNVMLSVKGITKNVHTVSVEKCSENGTVDVADKLVTFGLAKNITPQRQSALNTEKMYRMNCCCTELQKQVEKHEHILLFLLNNSTNQNKFIEMKKLLKS
B6: FMR1NB (protein, UniProt Q8N0W7 1-255, looked up)
FMR1 neighbor protein: MSSHRRKAKGRNRRSHRAMRVAHLELATYELAATESNPESSHPGYEAAMADRPQPGWRESLKMRVSKPFGMLMLSIWILLFVCYYLSYYLCSGSSYFVLANGHILPNSENAHGQSLEEDSALEALLNFFFPTTCNLRENQVAKPCNELQDLSESECLRHKCCFSSSGTTSFKCFAPFRDVPKQMMQMFGLGAISLILVCLPIYCRSLFWRSEPADDLQRQDNRVVTGLKKQRRKRKRKSEMLQKAARGREEHGDE
B7: SCP-1 (protein, UniProt Q15431 1-976, looked up)
Synaptonemal complex protein 1: MEKQKPFALFVPPRSSSSQVSAVKPQTLGGDSTFFKSFNKCTEDDFEFPFAKTNLSKNGENIDSDPALQKVNFLPVLEQVGNSDCHYQEGLKDSDLENSEGLSRVYSKLYKEAEKIKKWKVSTEAELRQKESKLQENRKIIEAQRKAIQELQFGNEKVSLKLEEGIQENKDLIKENNATRHLCNLLKETCARSAEKTKKYEYEREETRQVYMDLNNNIEKMITAFEELRVQAENSRLEMHFKLKEDYEKIQHLEQEYKKEINDKEKQVSLLLIQITEKENKMKDLTFLLEESRDKVNQLEEKTKLQSENLKQSIEKQHHLTKELEDIKVSLQRSVSTQKALEEDLQIATKTICQLTEEKETQMEESNKARAAHSFVVTEFETTVCSLEELLRTEQQRLEKNEDQLKILTMELQKKSSELEEMTKLTNNKEVELEELKKVLGEKETLLYENKQFEKIAEELKGTEQELIGLLQAREKEVHDLEIQLTAITTSEQYYSKEVKDLKTELENEKLKNTELTSHCNKLSLENKELTQETSDMTLELKNQQEDINNNKKQEERMLKQIENLQETETQLRNELEYVREELKQKRDEVKCKLDKSEENCNNLRKQVENKNKYIEELQQENKALKKKGTAESKQLNVYEIKVNKLELELESAKQKFGEITDTYQKEIEDKKISEENLLEEVEKAKVIADEAVKLQKEIDKRCQHKIAEMVALMEKHKHQYDKIIEERDSELGLYKSKEQEQSSLRASLEIELSNLKAELLSVKKQLEIEREEKEKLKREAKENTATLKEKKDKKTQTFLLETPEIYWKLDSKAVPSQTVSRNFTSVDHGISKDKRDYLWTSAKNTLSTPLPKAYTVKTPTKPKLQQRENLNIPIEESKKKRKMAFEFDINSDSSETTDLLSMVSEEETLKTLYRNNNPPASHLCVKTPKKAPSSLTTPGSTLKFGAIRKMREDRWAVIAKMDRKKKLKEAEKLFV

Test system: TSA
[1] = TSA expression rate in BLADDER cancer
[2] = TSA expression rate in Cervical cancer
[3] = TSA expression rate in Esophageal
[4] = TSA expression rate in GASTRIC cancer
[5] = TSA expression rate in HEAD and NECK
[6] = TSA expression rate in LEUKEMIAS
[7] = TSA expression rate in LUNG cancer
[8] = TSA expression rate in LYMPHOMAS
[9] = TSA expression rate in MELANOMA
[10] = TSA expression rate in PEDIATRIC
[11] = TSA expression rate in PROSTATE cancer

Molecule | TSA Expression Rate (ER) (BRAIN) [%] | TSA Expression Rate (ER) (BREAST) [%] | TSA Expression Rate (ER) (HCC) [%] | TSA Expression Rate (ER) (OVARIAN) [%] | TSA Expression Rate (ER) (PANCREATIC) [%] | TSA Expression Rate (ER) (THYROID) [%] | Expression Rate (ER) % [1] [%] | Expression Rate (ER) % [2] [%] | Expression Rate (ER) % [3] [%] | Expression Rate (ER) % [4] [%] | Expression Rate (ER) % [5] [%] | Expression Rate (ER) % (TSA expression rate in Kidney) [%] | Expression Rate (ER) % [6] [%] | Expression Rate (ER) % [7] [%] | Expression Rate (ER) % [8] [%] | Expression Rate (ER) % [9] [%] | Expression Rate (ER) % [10] [%] | TSA Expression Rate (ER) (LUNG) [%] | Expression Rate (ER) % (TSA expression rate in CRC) [%] | Expression Rate (ER) % [11] [%]
B1 | 4 | 27 | 48 | 13 | 21 | 0 | 11 | 20 | 7 | 23 | 29 | 0 | 30 | 13 | 16 | 21 | 67 |  |  | 
B2 | 34 | 19 | 37 |  |  | 0 | 19 |  | 11 | 10 | 29 |  | 37 |  | 0 | 45 | 40 | 27 | 4 | 6
B3 | 4 | 7 | 46 | 7 | 4 | 8 | 13 | 4 | 0 | 3 | 17 | 2 | 12 | 10 | 16 | 35 | 44 |  | 5 | 28
B4 |  | 0 |  |  |  | 0 | 10 |  | 0 |  | 10 | 0 |  | 9 |  | 21 |  |  | 0 | 0
B5 |  | 38 |  |  |  | 0 | 29 |  | 10 |  | 22 | 0 |  | 5 |  | 0 |  |  | 0 | 47
B6 |  | 55 |  |  |  |  |  |  | 8 |  |  | 0 |  |  |  |  |  | 28 |  | 0
B7 | 14 | 37 | 25 | 15 | 31 | 0 | 2 |  | 2 | 14 | 12 | 8 | 11 | 1 | 39 | 16 |  |  | 6 | 
